According to the nanobody polyreactivity screen of Harvey et al. (2022):

experiment: yeast display, Sf9 membrane polyspecificity reagent, FACS + sequencing; frameworks hold sequencing errors
Procedure, shortened: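 Galactose induction of a Saccharomyces cerevisiae BJ5465 synthetic nanobody display library ran 36–48 hours. The cells were then stained for 1 hour at 4 °C with 10% biotinylated, detergent-solubilized Sf9 membrane reagent, pulled down on streptavidin microbeads and FACS-sorted into low and high (top ~1%) gates on expression and reagent-binding fluorescence. Labels for polyreactivity follow the gate of origin.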

Row | Sequence | polyreactivity (PSR sort gate)
1 | QVQLVESGGGLVQAGGSLRLSCAASGSTSLYNMGWSRQAPGKERELVAAIDSGSTNYADSVKGRFTISRDNAKNTVYLQMNSLKPEDTAVYYCAADGTNIGVYDRASYRDDYWGQGTQVTVSS | low polyreactivity
2 | QVQLVESGGGLVQAGGSLRLSCAASGFIFSYYAMGWYRQAPGKERELVAAITWDGGSTYYADSVKGRFTISRDNAKNTVYLQMNSLKPEDTAVYYCNAYYYYRRPLEGGYWGQGTQVTVSS | low polyreactivity
3 | QDQLVESGGGLVQAGGSLRLICAASGLIFGFNTMACYRQAPGKESEFVAAINGSDGSTYADSVKGRFTISRDNAKNTVYLQMNSLKPEDTAVYYCAARYGSPKEYTYADMDYWGQGTQVTVSS | low polyreactivity
4 | QVQLVESGGGLVQAGGSLRLICAASGRIFRGNVMGWYRQAPGKERELDAAISSGGRTYYADSVKGRFTISRDNAKNTVYLQMNSLKPEDSAVYYCAKAFREGEGKFDYWGQGTQVTVSS | high polyreactivity
5 | QVQLVESGGGLVQAGGSLRLSCSASGYTFYLYTMGWYRQAPGTERELVAAISGSGTSTYYADSVKGRFTISRDNAKNTVYLQMNSLKPEDTAVYYCAAEDYSRDVYSYYYWGQGTQVTVSS | low polyreactivity
6 | QVQLVDSGGGLVQAGGSLRLSCAASGFIFDLYAMGWYRQAPGKERELVAAITTSGGTTYYADSVKGRFTISRDNAKNTVYLQMNSLIPEDTAVYFCAARRYSWYYYWGQGTQVTVSS | high polyreactivity
7 | QVQLVESGGGLVQAGGSLRLSCAASGRIFSYYDMGWYRQAPGKERELVATIRWSTSSTYADSVKGRFTISRDNAKPTVYLQMNILKPEDTAVYYCNAQYSQVNGYDYWGQGTQVTVSS | low polyreactivity
8 | QVQLVESGGGLVQLGGSLRLSCAASGSIIFSYAIGWSRQAPWKERELVADNRSSDDDTYYADSVKGRFTISRDNAQNTDYLDMNSLKPEDTGGYYCNADFGYWWDGRRYDYWVQGTQVTVSS | low polyreactivity
9 | QVQLVESAGGLVQAGGSLSLSCAASAFTYVCNRMGWNRQAPGKERELVAAITGSGSTNYADSVKGRFTISRDNAKNTVYLQMNSLKPEDTAVYYCATSDRQVKYDYWGQGTQVPVSS | low polyreactivity
10 | QVQLVESGGGLVQAGGSLRLSCAASGIIFYYYAMGWYRQAPGKERELVAAISWSGGSTYYADSVKGRFTISRDNAKNTVYLQMNSLKPDDTAVYYCAAAFSPGWWSRHTYDYDYWGQGTQVTVSS | high polyreactivity
11 | QVQLVESGGGLVQAGGSLRLSCAASGSIFFWNTMGWYRQAPGKERELVAAISSGGSTYYADSVKGRFTISRDTAKNTVYLQMNSLRPEDTAVYYCAAVYSGLYSYYYWGQGTQVTVSS | low polyreactivity
12 | QVQLVESGGGLVQAGGSLRLSCAASGFTFGYYTMGWYRQAPGKERELVAAISSSGGSTYYADSVKGRFTISRDNAKNTVYLQMNSLKPEDTAVYYCAARSVRYGGRYDYWGQGTQVTVSS | high polyreactivity
13 | QVQLVESGGGLVQAGGSHRLSSAASARIFAVNVMGWYRQAPGKERELVAAISWSDDIKYYADSVKGRFTISRDNAKNTVYLQMNSLKPEDTAVYYCAADFLPLHADDDDEDYWGQGTQVTVST | high polyreactivity
14 | QVKLVESCGGLVQAGGSLRLSCAASGYISSFNTKGWYRQAPGKERELVAAITRDGSTYYADSVKGRFTISRDNAKNSVYLQMNSLKPEYTAVYYCAARGWYATWLYYYWGQGSQVTVSS | high polyreactivity
15 | QVQLVESGGGLVQAGGSLRLSCAASGRILGSYAMGWYRQAPGKERELVAGISWRGGRTYYADSVKGRFTISRDNAKNTVYLQMNSLKPEDTAVYYCATRSSSRKYGYWGQGTQVTVSS | high polyreactivity
16 | QVQLVESGGGLVQAGGSLRLSCAASGNIFSWYAMGWYRQAPGKERELVAAITSGGITYYADSVKGRFTISRDNAKNTVYLQMNSLKPEDTAVYYCNIDVGFTRPLYYWGQGTQVTVSS | low polyreactivity
17 | QVQLVDSGGGLVQAGGSLRLSCAASGSTFRYNAMGWYRQAPGKERELVAAIDKRGDSTYADSVKGRFTISRDNAKNTVYLQMNSLKPEDTAVYYCAADSDSKYNYGFLWDTYEYWGQGTQVTVSS | low polyreactivity
